The record followed here is patent US20190358305A1.

For this experiment, the target named is Recombinant human active MMP-3 (ab96555, Abcam) (human) (UniProt P08254). The experiment in a line: cell-based or functional assay.
UniProt P08254, sequence (P08254 100-477 limits assumed): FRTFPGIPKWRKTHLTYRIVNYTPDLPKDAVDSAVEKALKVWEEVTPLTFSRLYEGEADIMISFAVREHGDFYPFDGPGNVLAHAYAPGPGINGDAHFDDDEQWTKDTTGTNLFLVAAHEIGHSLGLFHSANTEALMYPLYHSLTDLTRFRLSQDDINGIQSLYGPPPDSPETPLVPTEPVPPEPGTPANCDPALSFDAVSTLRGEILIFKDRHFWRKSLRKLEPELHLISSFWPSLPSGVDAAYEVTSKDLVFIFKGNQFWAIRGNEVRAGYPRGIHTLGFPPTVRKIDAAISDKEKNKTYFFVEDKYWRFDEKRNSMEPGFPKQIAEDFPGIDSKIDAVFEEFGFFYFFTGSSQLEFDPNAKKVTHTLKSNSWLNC

On to “Recombinant human active TIMP-1 (ab82104, Abcam) (from UniProt P01033 24-207)”, for which the TEER reduction of HTM monolayers over 24 h: 10 ng/ml active MMP-3 against MMP-3 inactivated by incubation with TIMP-1 was found to be 4.29 Ohm·cm^2, the TEER reduction of SCEC monolayers over 24 h: 10 ng/ml active MMP-3 against MMP-3 inactivated by incubation with TIMP-1 amounted to 5.62 Ohm·cm^2, the increase in paracellular flux (Papp) of 70 kDa FITC-dextran through HTM monolayers: active MMP-3 against TIMP-1-inactivated MMP-3 was 4e-05 ×10⁻⁶ cm/s and the increase in paracellular flux (Papp) of 70 kDa FITC-dextran through SCEC monolayers: active MMP-3 against TIMP-1-inactivated MMP-3 amounted to 0.00014 ×10⁻⁶ cm/s.
